# In PMC8292405, “Functional expression of the eukaryotic proton pump rhodopsin OmR2 in Escherichia coli and its photochemical characterization” (Scientific Reports, 2021):
# What was measured:
# [1] = target: T1, OmR2 (O. marina rhodopsin-2) (Oxyrrhis marina, UniProt A0A0B4P477); experiment: absorption spectroscopy; HPLC of retinal oximes; type: binding; conditions: covalent; protonated Schiff base (Lys213); 50 mM Tris-HCl pH 7.0, 1 M NaCl, 0.05% DDM
# T1 construct: full-length, codon-optimized synthetic gene, C-terminal His6 tag kept; expressed in E. coli BL21(DE3) (pET21a) and in HEK293T; purified in DDM micelles
# T1 sequence (A0A0B4P477 entry or part of it): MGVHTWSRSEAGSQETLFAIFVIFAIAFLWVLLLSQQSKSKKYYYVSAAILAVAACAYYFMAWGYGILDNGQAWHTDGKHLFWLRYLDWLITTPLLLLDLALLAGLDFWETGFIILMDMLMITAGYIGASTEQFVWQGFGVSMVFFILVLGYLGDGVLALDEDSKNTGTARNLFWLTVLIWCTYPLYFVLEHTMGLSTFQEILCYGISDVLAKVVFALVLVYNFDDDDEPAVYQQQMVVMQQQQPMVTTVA
# Asp81 = Asp81 (UniProt position 81, YARYIDWVLTT); conditions: not stated (counterion of the protonated Schiff base); cited from earlier work
# Asp95 [2] = target: Asp95 (UniProt position 95, YARYADWLFTT); conditions: not stated (counterion of the protonated Schiff base); cited from earlier work
# Asp85 = Asp85 (UniProt position 98, WARYADWLFTT); conditions: not stated (counterion of the protonated Schiff base); cited from earlier work
# Asp100 = conditions: not stated (counterion of the protonated Schiff base); cited from earlier work
# Asp88 = experiment: UV-vis; conditions: room temperature (approx. 25 °C), 1 M NaCl, Buffer A: 50 mM Tris-HCl, 0.05% (w/v) DDM, pH adjusted by adding HCl, Unphotolysed state under room light, all-trans retinal bound with protonated Schiff base, folded (reversibility of the spectral changes was checked)
# Asp97 = Asp97 (UniProt position 97, VFRYIDWLLTV); conditions: not stated (counterion of the protonated Schiff base); cited from earlier work
# Asp95 [3] = target: Asp95 (UniProt position 95, FYRYADWLLTV); conditions: not stated (counterion of the protonated Schiff base); cited from earlier work
molecule,measurement,setting,value
CC1=C(/C=C/C(C)=C/C=C/C(C)=C/C=O)C(C)(C)CCC1 [all-trans retinal],absorption spectroscopy; HPLC of retinal oximes,[1],This indicates that OmR2 possesses all-trans retinal regardless of the light environment
Acetabularia rhodopsin II (ARII) (Acetabularia acetabulum),pKa,Asp81,2.6
Archaerhodopsin-3 (AR3) (Halorubrum sodomense),pKa,Asp95 [2],3.1
Bacteriorhodopsin (BR) (Halobacterium salinarum),pKa,Asp85,2.6
"Oxyrrhis marina rhodopsin-1 (OmR1, OR1) (Oxyrrhis marina)",pKa,Asp100,4
Oxyrrhis marina rhodopsin-2 (OmR2) (Oxyrrhis marina),pKa,Asp88,3.0 ± 0.04
"Proteorhodopsin (PR, green-absorbing) (uncultured marine gamma-proteobacterium (EBAC31A08))",pKa,Asp97,7.5
Thermophilic rhodopsin (TR) (Thermus thermophilus),pKa,Asp95 [3],3.4
